According to PMC7356819, “Lanthanide-Dependent Methanol and Formaldehyde Oxidation in Methylobacterium aquaticum Strain 22A” (Microorganisms, 2020):

How the values were obtained:
[1] = biological target: T1, Hgd (S-hydroxymethyl glutathione dehydrogenase) (Methylobacterium aquaticum, UniProt A0A0C6FVV4); test: NADH formation at […] nm in cell-free extract, hgd deletion mutant as control; type: biochemical; details: S-hydroxymethylglutathione formed in situ from formaldehyde and glutathione; NAD, sodium phosphate pH 7, premix at 25 °C
T1 construct: gene adhC; native enzyme in cell-free extract of strain 22A; activity absent in the hgd deletion mutant
T1 sequence (A0A0C6FVV4 entry or part of it): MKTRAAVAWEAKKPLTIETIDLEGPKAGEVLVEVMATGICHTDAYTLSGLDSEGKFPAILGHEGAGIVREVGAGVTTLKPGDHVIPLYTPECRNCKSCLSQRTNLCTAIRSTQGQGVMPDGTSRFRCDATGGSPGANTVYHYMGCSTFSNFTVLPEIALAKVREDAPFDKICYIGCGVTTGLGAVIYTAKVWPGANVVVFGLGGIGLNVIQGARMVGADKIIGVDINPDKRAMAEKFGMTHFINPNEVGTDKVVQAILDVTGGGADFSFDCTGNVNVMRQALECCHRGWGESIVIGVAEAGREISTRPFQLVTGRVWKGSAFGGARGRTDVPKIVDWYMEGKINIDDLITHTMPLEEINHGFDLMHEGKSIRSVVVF

purified protein [2] = substrate: CO; test: purified protein; type: biochemical, Methylobacterium aquaticum; details: PMS and DCPIP as electron acceptors, ammonium chloride, La3+-loaded enzyme (0.58 La per monomer), Tris-HCl pH 9.0, 30 °C
purified protein [3] = substrate: C=O; test: purified protein; type: biochemical, Methylobacterium aquaticum; details: PMS and DCPIP as electron acceptors, ammonium chloride, La3+-loaded enzyme (0.58 La per monomer), Tris-HCl pH 9.0, 30 °C, formaldehyde prepared from autoclaved paraformaldehyde

N[C@@H](CCC(=O)N[C@@H](CSCO)C(=O)NCC(=O)O)C(=O)O [S-hydroxymethyl glutathione]
NADH formation at 340 nm in cell-free extract, hgd deletion mutant as control [1]: hgd indeed encodes S-hydroxymethylglutathione dehydrogenase

B1: XoxF1-His (XoxF1, Ln3+-dependent methanol dehydrogenase) (Methylobacterium aquaticum) (protein)
chain: NEDVLKRTANPAEQVLQTVDYANTRYSKLDQINAGNVNKLQVAWTFSTGVLRGHEGSPLVVGDVMYVHTPFPNIVYALDLNQDGKILWKYEPKQDPNVIPVMCCDTVNRGLAYADGAIFLHQADTTIVSLDAKSGKVNWSVQNGDPKIGETNTATVLPVKDKLIVGIAGAEYGIRGHITAYDLKTGKQAWRAYNLGPDAEMKIDPEKTTELGKPVGKDSSIKTWEGDQWKTGGASTWGWYSYDPKLNLVYYGTGNPSTWNPKQRPGDNKWSMTIFARDADTGVAKWVYQMTPHDEWDYDGINEMILTDQKIGDKERPLLTHFDRNGFGYTLDRATGELLVAEKYDPAVNWATKVDQDKSSKTYGRPLVVAKYSTDQNGEDTNSKGICPAALGSKDQQPAAYSPKTNLFYVPTNHVCMDYEPFRVSYTPGQPYVGATLSMYPAPNSHGGMGNFIAWDGTAGKIKWSNPEQFSVWSGALATAGDVVFYGTLEGYLKAVDSKTGKELYKFKTPSGIIGNVMTFQHKGKQNIAVLSGVGGWAGIGLAAGLTDPNAGLGAVGGYAALSSYTNLGGQLTVFNLPN
notes: His-tagged (primer-encoded at 3' end, C-terminal), tag kept; Ni-NTA; ca. 60 kDa monomer
Km (purified protein [2]): 30 µM | Km (purified protein [3]): 340 µM
